# Data published in PMC2807882, “Conservation of DNA-binding specificity and oligomerisation properties within the p53 family”.
# T1: ΔNp63γ (Homo sapiens, UniProt Q9H3D4-6 1-393)
# T1 sequence: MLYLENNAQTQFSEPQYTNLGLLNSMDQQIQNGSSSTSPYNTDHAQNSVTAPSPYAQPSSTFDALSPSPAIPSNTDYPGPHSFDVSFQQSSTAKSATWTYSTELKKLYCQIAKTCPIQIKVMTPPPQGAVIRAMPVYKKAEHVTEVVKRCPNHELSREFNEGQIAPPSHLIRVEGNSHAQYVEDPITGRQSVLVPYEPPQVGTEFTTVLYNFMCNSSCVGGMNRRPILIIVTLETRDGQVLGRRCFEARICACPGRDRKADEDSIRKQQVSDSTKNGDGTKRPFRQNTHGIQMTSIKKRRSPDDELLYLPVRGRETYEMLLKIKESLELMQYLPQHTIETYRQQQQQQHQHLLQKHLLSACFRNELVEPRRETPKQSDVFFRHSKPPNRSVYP
# T2: Drp53 (Danio rerio, UniProt P79734 1-373)
# T2 sequence: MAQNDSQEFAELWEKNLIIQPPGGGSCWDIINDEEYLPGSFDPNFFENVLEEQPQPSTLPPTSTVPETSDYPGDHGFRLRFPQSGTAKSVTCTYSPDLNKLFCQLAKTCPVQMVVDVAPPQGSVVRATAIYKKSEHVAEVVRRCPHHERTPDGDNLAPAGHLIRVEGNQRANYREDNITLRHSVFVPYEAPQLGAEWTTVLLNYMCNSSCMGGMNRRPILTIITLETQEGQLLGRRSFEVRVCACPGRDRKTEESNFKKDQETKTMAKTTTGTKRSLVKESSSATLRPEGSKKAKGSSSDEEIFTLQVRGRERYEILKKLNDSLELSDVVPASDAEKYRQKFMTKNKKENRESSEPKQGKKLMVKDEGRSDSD
# T3: Dmp53 (Drosophila melanogaster, UniProt Q9N6D8 1-385)
# T3 sequence: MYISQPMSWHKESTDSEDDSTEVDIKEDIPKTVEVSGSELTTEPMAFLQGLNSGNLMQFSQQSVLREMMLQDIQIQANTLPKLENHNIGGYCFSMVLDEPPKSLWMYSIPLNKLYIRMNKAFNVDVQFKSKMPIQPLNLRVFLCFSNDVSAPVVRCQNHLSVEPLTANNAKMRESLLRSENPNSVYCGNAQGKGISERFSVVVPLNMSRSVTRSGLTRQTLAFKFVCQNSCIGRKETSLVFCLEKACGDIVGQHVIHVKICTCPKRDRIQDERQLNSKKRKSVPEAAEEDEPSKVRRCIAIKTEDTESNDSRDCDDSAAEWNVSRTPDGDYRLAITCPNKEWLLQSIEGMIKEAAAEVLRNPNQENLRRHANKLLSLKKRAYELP
# B1: Ref_Alexa488 (dsDNA)
# DNA 1: GGACATGTCCGGACATGTCC
# DNA 2: GGACATGTCCGGACATGTCC
# Legend:
# Test in all cases: fluorescence anisotropy, direct; 25 mM NaPi, 225 mM NaCl, 10% v/v glycerol, 5 mM DTT, 0.2 mg/mL BSA, 22°C; 20 nM labelled DNA; pH not stated for the binding assay
# Conditions in all cases: protein: recombinant; tags: N-terminal 6xHis-lipoyl-TEV tag, cleaved; chain copies: 4; label: 5'-Alexa488
# [1] = target: T1, ΔNp63γ
# [2] = target: T2, Drp53
# [3] = target: T3, Dmp53
# [4] = target: Mmp53 (Mus musculus, UniProt P02340 1-390)
# Chain of Mmp53 (P02340 whole entry): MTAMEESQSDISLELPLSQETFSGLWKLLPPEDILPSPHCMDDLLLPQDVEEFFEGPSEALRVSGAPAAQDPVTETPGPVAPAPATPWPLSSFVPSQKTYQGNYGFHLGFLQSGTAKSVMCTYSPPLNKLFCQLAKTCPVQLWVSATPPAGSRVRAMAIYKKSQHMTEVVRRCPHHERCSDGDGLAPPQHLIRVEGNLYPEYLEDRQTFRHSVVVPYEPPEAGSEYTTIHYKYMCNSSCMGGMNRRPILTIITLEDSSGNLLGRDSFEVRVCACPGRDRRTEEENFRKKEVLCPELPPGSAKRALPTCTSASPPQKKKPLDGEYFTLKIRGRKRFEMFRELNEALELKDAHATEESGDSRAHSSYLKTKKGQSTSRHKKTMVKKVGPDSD
binder,measurement,setting,value
B1,Kd,[1],-7.17 ± 0.02 log10(M)
same,Kd,[2],-7.2 ± 0.03 log10(M)
same,Kd,[3],-7.28 ± 0.03 log10(M)
same,Kd,[4],-7.02 ± 0.04 log10(M)
